From patent US12180473B2, “Chimeric RNA-driven genomic rearrangement in mammalian cells” (priority 2018, dated 2024)
Entries after “also recorded” stand apart in the source; their conditions may differ.

Assays:
TMPRSS2-ERG fusion [1] = tested on: TMPRSS2-ERG fusion
Method: (§1) LNCaP cells were cultured in this special medium for 24 hrs prior to plasmid transfection.
(§2) Transfection was performed using Turbofect transfection reagent (Thermo Scientific, #R0531) according to manufacturer's protocol. Briefly, 1 μg of a particular plasmid was first diluted in 100 μl of the serum-free DMEM followed by immediate mixing by pipetting. 4 μl of the transfection reagent was then added to the diluted DNA followed by mixing and incubation for 20 min. The DNA/transfection reagent mixture was then added drop wise to a well containing LNCaP cells in 1 ml medium.
(§3) For treating cultured cells, concentrated DHT stock was diluted as 10× working solutions (for example, for 0.9 μM final concentration, 10× is prepared as 9.0 μM) with the appropriate complete culture medium and used immediately. […] Six hrs post transfection, 111 μl of fresh 10× DHT working solutions was added to each well of 12-wells plate containing 1 ml medium and transfected cells.
(§4) Briefly, cells were suspended in 200 μl of PBS buffer and were then lysed with 400 μl of lysis buffer. The sample was then passed through the filter assembly resulting in the binding of the nucleic acids to the filter. The filter containing nucleic acids was then incubated with DNase I dissolved in DNase incubation buffer to degrade genomic and plasmid DNAs. The column was then rinsed with wash buffer and total RNA then eluted in a new tube for further analysis.
(§5) After the addition of dNTPs, the mixture was denatured at 65° C. for 5 minutes. This was followed by the addition of a master-mix containing 1× superscript buffer, 10 mM DTT, 5 mM Magnesium chloride, RNaseOUT and Superscript III reverse transcriptase. Reactions were carried out at 50° C. for 50 minutes and then terminated by incubation at 85° C. for 5 minutes. cDNA was then treated with RNase-H for 20 minutes at 37° C. to degrade RNA in DNA/RNA hybrid. 1 μl of cDNA was used as template for each subsequent PCR reaction.
(§6) The Denaturation, Annealing and Extension steps were performed 32 cycles for induced fusion RNA and 27 cycles for input RNA.

TMPRSS2-ERG fusion [2] = test: RT-PCR detection of induced endogenous TMPRSS2-ERG fusion transcript in LNCaP cells expressing input RNA; conditions: for induction of endogenous TMPRSS2-ERG fusion transcript (RT-PCR): LNCaP cells transfected with input RNA plasmid, DHT for 3 days
Method: as §1, §2, §3, §4, §5, §6

Molecule | induction with U6 promoter compared to CMV promoter (TMPRSS2-ERG fusion [1]) | induction of endogenous TMPRSS2-ERG fusion transcript (RT-PCR) (TMPRSS2-ERG fusion [2]) | Cell line(s) identified (TMPRSS2-ERG fusion [2]; fusion gene partners TMPRSS2-ERG, LNCaP)
Antisense-2: input RNA, SEQ ID NO: 5 (nucleic acid) antisense: TGTGCTCGCTTCGGCAGCACATATACTAACATTGGAACGATCCTGCAGCTTGAGCCATTCACCTGGCTAGGGTTACATTCCATATTGATGGTGACCCTGGCTGGGGGTTGAGACAGCCAATCCTGCTGAGGGACGCGTGGGCTCATCTTGGAAGTCTGTCCATAGTCGCTGGAGGAGGACGCGGTCATCTCTGTCTTAGCCAGGTGTGGCGTTCCGTAGGCACACTCAAACAACGACTGGTCCTCACTCACAACTGATAAGGCTTCCTGCCGCGCTCCAGGCGGCGCTCCCCGCCCCTCGCCCTCCGCCTCCGCCTCCGCCTCCTGCTTAGCTCGCGCCTACTC | more pronounced | induced a clear band of 721 bp; also recorded: capable of inducing the fusion transcript | LNCaP
Sense-2: input RNA, SEQ ID NO: 2 (nucleic acid) sense: TGTGCTCGCTTCGGCAGCACATATACTAACATTGGAACGATCCTGCAGGAGTAGGCGCGAGCTAAGCAGGAGGCGGAGGCGGAGGCGGAGGGCGAGGGGCGGGGAGCGCCGCCTGGAGCGCGGCAGGAAGCCTTATCAGTTGTGAGTGAGGACCAGTCGTTGTTTGAGTGTGCCTACGGAACGCCACACCTGGCTAAGACAGAGATGACCGCGTCCTCCTCCAGCGACTATGGACAGACTTCCAAGATGAGCCCACGCGTCCCTCAGCAGGATTGGCTGTCTCAACCCCCAGCCAGGGTCACCATCAAAATGGAATGTAACCCTAGCCAGGTGAATGGCTCAAG |  | failed to induce fusion transcripts | 
Antisense-B3: input RNA, SEQ ID NO: 17 (nucleic acid) antisense: TGTGCTCGCTTCGGCAGCACATATACTAACATTGGAACGATCCTGCAGTGGGGAGCATTTCCAGATGGAGAAACTGCAAGGAAAAGCATAGAAGTGGGGCCACCCCTCGTGAGCTGGGGAGGGCTCACCTGCCGCGCTCCAGGCGGCGCTCCCCGCCCCTCGCCCTCCGCCTCCG |  | complete loss of induction | 
Antisense-C2: input RNA, SEQ ID NO: 19 (nucleic acid) antisense: TGTGCTCGCTTCGGCAGCACATATACTAACATTGGAACGATCCTGCAGTGAGCTCATGCTATTCCTATGACATAGATGAGCACTGGGTAGACCCCGTCCTGGTAACACTATTCATGCACTAACCAGCACTCCCAGTCCTCCTCCCCAAAGAGAAAAGGCGCACCGGTGCTCCCAG |  | complete loss of induction | 
Sense-2 Long: input RNA, SEQ ID NO: 3 (nucleic acid) sense: TGTGCTCGCTTCGGCAGCACATATACTAACATTGGAACGATCCTGCAGGAGTAGGCGCGAGCTAAGCAGGAGGCGGAGGCGGAGGCGGAGGGCGAGGGGCGGGGAGCGCCGCCTGGAGCGCGGCAGGAAGCCTTATCAGTTGTGAGTGAGGACCAGTCGTTGTTTGAGTGTGCCTACGGAACGCCACACCTGGCTAAGACAGAGATGACCGCGTCCTCCTCCAGCGACTATGGACAGACTTCCAAGATGAGCCCACGCGTCCCTCAGCAGGATTGGCTGTCTCAACCCCCAGCCAGGGTCACCATCAAAATGGAATGTAACCCTAGCCAGGTGAATGGCTCAAGGAACTCTCCTGATGAATGCAGTGTGGCCAAAGGCGGGAAGATGGTGGGCAGCCCAGACACCGTTGGGATGAACTACGGCAGCTACATGGAGGAGAAGCACATGCCACCCCCAAACATGACCACGAACGAGCGCAGAGTTATCGTGCCAGCAGATCCTACGCTATGGAGTACAGACCATGTGCGGCAGTGGCTGGAGTGGGCGGTGAAAGAATATGGCCTTCCAGACGTCAACATCTTGTTATTCCAGAACATCGATGGGAAGGAACTGTGCAAGATGACCAAGGACGACTTCCAGAGGCTCACCCCCAGCTACAACGCCGACATCCTTCTCTCACATCTCCACTACCTCAGAGAGACTCCTCTTCCACATTTGACTTCAGATGATGTTGATAAAGCCTTA |  | failed to induce fusion transcripts | 
